Experiments:
[1] = ThT fluorescence of gT72/unmodified mixtures, 50 μM total; conditions: glycan gained, control: unmodified α-synuclein
[2] = TEM of fibers from mixtures; conditions: glycan gained; control: unmodified α-synuclein, 50 μM

Row | Substance | other: fibril aggregation [1] | structure_or_conformation [2]
1 | α-synuclein: 10% α-synuclein(gT72) | decreases | –
2 | α-synuclein: 10-50% α-synuclein(gT72) mixtures | – | no change
3 | α-synuclein: 25% α-synuclein(gT72) | decreases | –
4 | α-synuclein: 50% α-synuclein(gT72) | decreases | –

From paper PMC4618406
